Experimental findings from publication PMC8694188, “EPSP Synthase-Depleted Cells Are Aromatic Amino Acid Auxotrophs in Mycobacterium smegmatis” (Microbiology Spectrum, 2021) are described below.

Substrate in this data set: C=C(OP(=O)(O)O)C(=O)O
The experiment in a line: continuous coupled spectrophotometric Pi release assay (MtPNP / MESG). It counts as biochemical, Mycolicibacterium smegmatis. Particulars: apparent constant, PEP varied at fixed-saturating S3P, 100 mM Tris-HCl pH 7.8, 25°C. An excerpt:
continuous coupled spectrophotometric Pi release assay (MtPNP / MESG) on MsEPSPS

Substitutions are numbered along the chain they refer to. Numbers in names are those of the source.

B1: MsEPSPS (Mycolicibacterium smegmatis MC2 155) (protein)
chain: MSARADEEQKPHWAAPSTTAPVDATVTVPGSKSLTNRALILAALATSQGTSTISGALRSRDTDLMIEAIRTLGVTVDISAADPTELTVHGSIEPATDATVDCGLAGTVLRFVPPVAALSRSSVTFDGDEQARSRPIAPLLDGLRRLGVRLDGDGLPFTVRGTGTVSGGTVEIDASGSSQFVSGLLLSGAGFENGLTIVHTGVSVPSAPHVAMTVAMLRDAGVEVDDSVANRWQVNPGPVAARSWNIEPDLSNSTPFLAAALVTGGTVRIAGWPTVSIQPADTILELLATVGGSVREADGHLEVTGAHEYGGFEADLHDVGELAPTVAALAALAKEGSTSQLRGIAHLRGHETDRLAALTTEINGLGGDCRETDDGLLITARPLHGGTWRSYADHRMATAGAIVGLRVPGVVVENIETTAKTLPDFPSMWVDMLAGEPGRNQQR
notes: full-length WT aroA in pET-23a(+) (NdeI/HindIII), expressed in E. coli; no tag evident (native stop codon in reverse primer, ion-exchange and hydrophobic purification); apparent mass 46 kDa on SDS-PAGE
For the protein B1, the Michaelis-Menten constant (Km) was 88 ± 11 µM, the catalytic constant (kcat) turned out to be 0.553 ± 0.0185 s⁻¹ and the specificity constant (kcat/Km) was 6280 M⁻¹ s⁻¹.

B2: MsEPSPS (Mycolicibacterium smegmatis MC2 155; R134A) (protein)
chain: B1 chain with R134A
notes: as for B1
With B2, the Km is on record as 3,676 ± 1,007 μM, the turnover number (kcat) stood at 0.184 ± 0.033 s⁻¹ and the kcat/Km stood at 50.1 M⁻¹ s⁻¹.

B3: MsEPSPS (Mycolicibacterium smegmatis MC2 155; E321N) (protein)
chain: B1 chain with E321N
notes: as for B1
Consider B3, for which the Km is reported as 3,081 ± 808 μM, the kcat came to 0.438 ± 0.0469 s⁻¹ and the specificity constant (kcat/Km) turned out to be 142 M⁻¹ s⁻¹.

B4: MsEPSPS (Mycolicibacterium smegmatis MC2 155; D61W) (protein)
chain: B1 chain with D61W
notes: as for B1
With B4, the Km was 1,014 ± 975 μM, the kcat was determined as 0.107 ± 0.0608 s⁻¹ and the kcat/Km amounted to 106 M⁻¹ s⁻¹.

The Km is the concentration of substrate that gives half-maximal velocity. Broadly, the kcat is the maximal rate divided by the concentration of active sites. By kcat/Km is commonly meant the turnover number divided by the Michaelis constant.
